Data on two molecules can be found in article PMC8720176.

Like-named read-outs stand apart in the source and are kept apart here.

What all share (assay): X-ray crystallography
Series [1] has as its target T1, Δ30-EXO5 WT (Homo sapiens, UniProt Q9H790 31-373, del1-30).
T1 sequence: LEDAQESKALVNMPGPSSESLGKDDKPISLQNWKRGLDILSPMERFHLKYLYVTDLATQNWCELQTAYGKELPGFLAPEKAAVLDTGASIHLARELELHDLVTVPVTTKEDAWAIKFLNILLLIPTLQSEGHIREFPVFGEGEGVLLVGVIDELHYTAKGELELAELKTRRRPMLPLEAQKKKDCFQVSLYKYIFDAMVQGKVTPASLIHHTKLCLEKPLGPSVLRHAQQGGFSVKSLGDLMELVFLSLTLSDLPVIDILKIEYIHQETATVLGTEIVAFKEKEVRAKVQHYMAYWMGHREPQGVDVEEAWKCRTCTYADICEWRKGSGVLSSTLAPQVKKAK

The next series concerns the target T2, T88E-Δ30-EXO5 (Homo sapiens, UniProt Q9H790 31-373, T88E;del1-30).
T2 sequence: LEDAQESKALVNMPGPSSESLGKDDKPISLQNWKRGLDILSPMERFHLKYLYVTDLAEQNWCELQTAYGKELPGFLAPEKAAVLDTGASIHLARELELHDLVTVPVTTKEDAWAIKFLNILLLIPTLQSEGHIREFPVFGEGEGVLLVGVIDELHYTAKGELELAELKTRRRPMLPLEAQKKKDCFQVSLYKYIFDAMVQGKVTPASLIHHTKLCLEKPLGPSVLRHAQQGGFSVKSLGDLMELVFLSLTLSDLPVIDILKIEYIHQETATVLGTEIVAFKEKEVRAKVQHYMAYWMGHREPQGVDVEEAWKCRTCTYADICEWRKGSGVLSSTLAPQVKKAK

For series [2], the target named is T1, Δ30-EXO5 WT. The source holds these as a separate data set.

B1: dT12 (ssDNA)
DNA: TTTTTTTTTTTT
modifications: 3' thiol modifier C3 S-S
In the case of B1, the binding result with Δ30-EXO5 WT [1] and with T88E-Δ30-EXO5 was “binds” throughout.

B2: 12mer (ssDNA)
DNA: ATTGCTGAAGGG
For B2, the binding result with Δ30-EXO5 WT [2] is “binds”.
